Test results published in the supplement of paper PMC10567573.

B1: SNAP91 (parent)
chain: FSTDAFSSPPQGASPVPESSLTAD

Variants of: B1
Assay: protein stability index of a GFP-peptide fusion (GPS, HEK-293T) (PSI 1-6); higher = more stable
Settings: c terminus: a fixed tail appended
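Also: lentivirally expressed fusions sorted by FACS into six bins by GFP to DsRed ratio, PSI derived from sequencing read proportions per bin multiplied by bin number.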

Question: Which protein stability index does the source give for FSTDAFHSPPQGASPVPESSLTAD [S7H] here?
Answer: 2.51

Question: Which protein stability index does the source give for FSTDAFPSPPQGASPVPESSLTAD [S7P] here?
Answer: 3.56

Question: With FSTDAFCSPPQGASPVPESSLTAD [S7C] as the variant, how does the protein stability index read?
Answer: 2.18

Question: For FSTDAFASPPQGASPVPESSLTAD [S7A], which protein stability index is on record?
Answer: 2.98

Question: Which protein stability index does the source give for FSTDAFFSPPQGASPVPESSLTAD [S7F] here?
Answer: 1.99

Question: For FSTDAFWSPPQGASPVPESSLTAD [S7W], which protein stability index is on record?
Answer: 3.15

Question: With FSTDAFMSPPQGASPVPESSLTAD [S7M] as the variant, how does the protein stability index read?
Answer: 2.84

Question: With FSTDAFESPPQGASPVPESSLTAD [S7E] as the variant, how does the protein stability index read?
Answer: 5.35

Question: With FSTDAFKSPPQGASPVPESSLTAD [S7K] as the variant, how does the protein stability index read?
Answer: 2.96

Question: Which protein stability index does the source give for FSTDAFRSPPQGASPVPESSLTAD [S7R] here?
Answer: 1.62

Question: With FSTDAFYSPPQGASPVPESSLTAD [S7Y] as the variant, how does the protein stability index read?
Answer: 2.9

Question: With FSTDAFGSPPQGASPVPESSLTAD [S7G] as the variant, how does the protein stability index read?
Answer: 3.89

Question: With FSTDAFDSPPQGASPVPESSLTAD [S7D] as the variant, how does the protein stability index read?
Answer: 5.47

Question: With FSTDAFNSPPQGASPVPESSLTAD [S7N] as the variant, how does the protein stability index read?
Answer: 4.22

Question: For FSTDAFQSPPQGASPVPESSLTAD [S7Q], which protein stability index is on record?
Answer: 3.77

Question: For FSTDAFLSPPQGASPVPESSLTAD [S7L], which protein stability index is on record?
Answer: 2.96

Question: For FSTDAFVSPPQGASPVPESSLTAD [S7V], which protein stability index is on record?
Answer: 2.32

Question: With FSTDAFISPPQGASPVPESSLTAD [S7I] as the variant, how does the protein stability index read?
Answer: 2.66

Question: With FSTDAFTSPPQGASPVPESSLTAD [S7T] as the variant, how does the protein stability index read?
Answer: 3.33

Question: For FSNDAFSSPPQGASPVPESSLTAD [T3N], which protein stability index is on record?
Answer: 4.84

Question: For FSSDAFSSPPQGASPVPESSLTAD [T3S], which protein stability index is on record?
Answer: 2.95

Question: With FSGDAFSSPPQGASPVPESSLTAD [T3G] as the variant, how does the protein stability index read?
Answer: 4.47

Question: With FSIDAFSSPPQGASPVPESSLTAD [T3I] as the variant, how does the protein stability index read?
Answer: 4.4

Question: Which protein stability index does the source give for FSEDAFSSPPQGASPVPESSLTAD [T3E] here?
Answer: 5.08

Question: With FSDDAFSSPPQGASPVPESSLTAD [T3D] as the variant, how does the protein stability index read?
Answer: 5.08

Question: Which protein stability index does the source give for FSWDAFSSPPQGASPVPESSLTAD [T3W] here?
Answer: 4.38

Question: With FSADAFSSPPQGASPVPESSLTAD [T3A] as the variant, how does the protein stability index read?
Answer: 5.12

Question: With FSHDAFSSPPQGASPVPESSLTAD [T3H] as the variant, how does the protein stability index read?
Answer: 5.4

Question: Which protein stability index does the source give for FSQDAFSSPPQGASPVPESSLTAD [T3Q] here?
Answer: 5.5

Question: For FSYDAFSSPPQGASPVPESSLTAD [T3Y], which protein stability index is on record?
Answer: 4.46

Question: For FSKDAFSSPPQGASPVPESSLTAD [T3K], which protein stability index is on record?
Answer: 4.93

Question: For FSFDAFSSPPQGASPVPESSLTAD [T3F], which protein stability index is on record?
Answer: 4.6

Question: For FSPDAFSSPPQGASPVPESSLTAD [T3P], which protein stability index is on record?
Answer: 4.49

Question: For FSVDAFSSPPQGASPVPESSLTAD [T3V], which protein stability index is on record?
Answer: 4.56

Question: For FSMDAFSSPPQGASPVPESSLTAD [T3M], which protein stability index is on record?
Answer: 3.37

Question: Which protein stability index does the source give for FSLDAFSSPPQGASPVPESSLTAD [T3L] here?
Answer: 4.93

Question: With FSRDAFSSPPQGASPVPESSLTAD [T3R] as the variant, how does the protein stability index read?
Answer: 4.91

Question: With FSCDAFSSPPQGASPVPESSLTAD [T3C] as the variant, how does the protein stability index read?
Answer: 4.3

Question: For FSTTAFSSPPQGASPVPESSLTAD [D4T], which protein stability index is on record?
Answer: 2.21

Question: Which protein stability index does the source give for FSTKAFSSPPQGASPVPESSLTAD [D4K] here?
Answer: 2.94

Question: Which protein stability index does the source give for FSTSAFSSPPQGASPVPESSLTAD [D4S] here?
Answer: 2.82

Question: Which protein stability index does the source give for FSTIAFSSPPQGASPVPESSLTAD [D4I] here?
Answer: 3.45

Question: Which protein stability index does the source give for FSTCAFSSPPQGASPVPESSLTAD [D4C] here?
Answer: 2.76

Question: With FSTRAFSSPPQGASPVPESSLTAD [D4R] as the variant, how does the protein stability index read?
Answer: 2.37

Question: For FSTVAFSSPPQGASPVPESSLTAD [D4V], which protein stability index is on record?
Answer: 3.28

Question: Which protein stability index does the source give for FSTQAFSSPPQGASPVPESSLTAD [D4Q] here?
Answer: 3.28

Question: With FSTHAFSSPPQGASPVPESSLTAD [D4H] as the variant, how does the protein stability index read?
Answer: 3.44

Question: Which protein stability index does the source give for FSTPAFSSPPQGASPVPESSLTAD [D4P] here?
Answer: 4.29

Question: Which protein stability index does the source give for FSTWAFSSPPQGASPVPESSLTAD [D4W] here?
Answer: 1.67

Question: Which protein stability index does the source give for FSTLAFSSPPQGASPVPESSLTAD [D4L] here?
Answer: 2.63

Question: For FSTMAFSSPPQGASPVPESSLTAD [D4M], which protein stability index is on record?
Answer: 2.92

Question: Which protein stability index does the source give for FSTFAFSSPPQGASPVPESSLTAD [D4F] here?
Answer: 3.06

Question: For FSTYAFSSPPQGASPVPESSLTAD [D4Y], which protein stability index is on record?
Answer: 3.02

Question: With FSTAAFSSPPQGASPVPESSLTAD [D4A] as the variant, how does the protein stability index read?
Answer: 3.25

Question: For FSTNAFSSPPQGASPVPESSLTAD [D4N], which protein stability index is on record?
Answer: 2.66

Question: For FSTEAFSSPPQGASPVPESSLTAD [D4E], which protein stability index is on record?
Answer: 4.2

Question: With FSTGAFSSPPQGASPVPESSLTAD [D4G] as the variant, how does the protein stability index read?
Answer: 2.71

Question: For FSTDAASSPPQGASPVPESSLTAD [F6A], which protein stability index is on record?
Answer: 5.57

Question: With FSTDAESSPPQGASPVPESSLTAD [F6E] as the variant, how does the protein stability index read?
Answer: 5.69

Question: Which protein stability index does the source give for FSTDAMSSPPQGASPVPESSLTAD [F6M] here?
Answer: 5.53

Question: Which protein stability index does the source give for FSTDAWSSPPQGASPVPESSLTAD [F6W] here?
Answer: 1.86

Question: With FSTDANSSPPQGASPVPESSLTAD [F6N] as the variant, how does the protein stability index read?
Answer: 5.31

Question: Which protein stability index does the source give for FSTDACSSPPQGASPVPESSLTAD [F6C] here?
Answer: 5.09

Question: Which protein stability index does the source give for FSTDAHSSPPQGASPVPESSLTAD [F6H] here?
Answer: 5.62

Question: With FSTDAKSSPPQGASPVPESSLTAD [F6K] as the variant, how does the protein stability index read?
Answer: 5.38

Question: For FSTDAVSSPPQGASPVPESSLTAD [F6V], which protein stability index is on record?
Answer: 5.59

Question: For FSTDAGSSPPQGASPVPESSLTAD [F6G], which protein stability index is on record?
Answer: 5.48

Question: Which protein stability index does the source give for FSTDALSSPPQGASPVPESSLTAD [F6L] here?
Answer: 5.55

Question: Which protein stability index does the source give for FSTDASSSPPQGASPVPESSLTAD [F6S] here?
Answer: 5.44

Question: For FSTDAPSSPPQGASPVPESSLTAD [F6P], which protein stability index is on record?
Answer: 5.53

Question: With FSTDAYSSPPQGASPVPESSLTAD [F6Y] as the variant, how does the protein stability index read?
Answer: 3.26

Question: Which protein stability index does the source give for FSTDAISSPPQGASPVPESSLTAD [F6I] here?
Answer: 5.43

Question: For FSTDATSSPPQGASPVPESSLTAD [F6T], which protein stability index is on record?
Answer: 5.61

Question: With FSTDARSSPPQGASPVPESSLTAD [F6R] as the variant, how does the protein stability index read?
Answer: 5.49

Question: For FSTDAQSSPPQGASPVPESSLTAD [F6Q], which protein stability index is on record?
Answer: 5.63

Question: With FSTDADSSPPQGASPVPESSLTAD [F6D] as the variant, how does the protein stability index read?
Answer: 5.44

Question: Which protein stability index does the source give for FSTDFFSSPPQGASPVPESSLTAD [A5F] here?
Answer: 2.03

Question: Which protein stability index does the source give for FSTDLFSSPPQGASPVPESSLTAD [A5L] here?
Answer: 3.55

Question: Which protein stability index does the source give for FSTDKFSSPPQGASPVPESSLTAD [A5K] here?
Answer: 4.71

Question: For FSTDNFSSPPQGASPVPESSLTAD [A5N], which protein stability index is on record?
Answer: 5.16

Question: For FSTDSFSSPPQGASPVPESSLTAD [A5S], which protein stability index is on record?
Answer: 4.68

Question: With FSTDQFSSPPQGASPVPESSLTAD [A5Q] as the variant, how does the protein stability index read?
Answer: 4.88

Question: With FSTDGFSSPPQGASPVPESSLTAD [A5G] as the variant, how does the protein stability index read?
Answer: 4.76

Question: With FSTDCFSSPPQGASPVPESSLTAD [A5C] as the variant, how does the protein stability index read?
Answer: 4.07

Question: With FSTDYFSSPPQGASPVPESSLTAD [A5Y] as the variant, how does the protein stability index read?
Answer: 2.33

Question: For FSTDIFSSPPQGASPVPESSLTAD [A5I], which protein stability index is on record?
Answer: 3.79

Question: For FSTDDFSSPPQGASPVPESSLTAD [A5D], which protein stability index is on record?
Answer: 5.61

Question: With FSTDTFSSPPQGASPVPESSLTAD [A5T] as the variant, how does the protein stability index read?
Answer: 4.96

Question: Which protein stability index does the source give for FSTDEFSSPPQGASPVPESSLTAD [A5E] here?
Answer: 4.8

Question: For FSTDPFSSPPQGASPVPESSLTAD [A5P], which protein stability index is on record?
Answer: 4.94

Question: With FSTDRFSSPPQGASPVPESSLTAD [A5R] as the variant, how does the protein stability index read?
Answer: 4.71

Question: With FSTDWFSSPPQGASPVPESSLTAD [A5W] as the variant, how does the protein stability index read?
Answer: 1.92

Question: For FSTDHFSSPPQGASPVPESSLTAD [A5H], which protein stability index is on record?
Answer: 4.59

Question: With FSTDMFSSPPQGASPVPESSLTAD [A5M] as the variant, how does the protein stability index read?
Answer: 4.56
